The values below come from doi:10.1101/2022.01.28.478199.

The test has as its target Hsp78TR-6xHis (Hsp78 E216Q/E614Q Walker B mutant with a C-terminal 6x polyhistidine-tag) (S. cerevisiae) (UniProt P33416). The test is described as follows: native gel or EMSA.

Values joined by “and” are separate entries in the source; they are usually repeats but may differ in a detail not shown here. Identical values can stand only once.

In the case of “Hsp78TR-6xHis (Hsp78 E216Q/E614Q Walker B mutant with a C-terminal 6x polyhistidine-tag) (from UniProt P33416 45-811) (natural protein)”, the stoichiometry N was 3 and 6.
